Assay [1] deals with PT linker-SpyCatcher-His (Streptococcus pyogenes). The assay can be described thus: depletion of SpyTag-GA (15 mg/g resin) from supernatant, conditions of Example 4.3; SpyCatcher modified epoxy carrier, batch 1.
The target is the same in assay [2]. The experiment in a line: depletion of SpyTag-GA (15 mg/g resin) from supernatant, conditions of Example 4.3; SpyCatcher modified epoxy carrier, batch 2.
For assay [3] the target is unchanged. The assay can be described thus: depletion of SpyTag-GA (15 mg/g resin) from supernatant, conditions of Example 4.3; SpyCatcher modified epoxy carrier, batch 3.
Assay [4] has the same target. The experiment in a line: depletion of SpyTag-GA (15 mg/g resin) from supernatant, conditions of Example 4.3; SpyCatcher modified epoxy carrier, batch 4.
Assay [5] shares this target. The assay can be described thus: depletion of SpyTag-GA (15 mg/g resin) from supernatant, conditions of Example 4.3; SpyCatcher modified epoxy carrier, batch 5.
For assay [6] the target is unchanged. The experiment in a line: depletion of purified SpyTag-GA (15 mg/g carrier) from supernatant, SDS-PAGE densitometry; SpyCatcher-LX-1000EP; pH 7.0, 25 C, 2 h.
Assay [7] shares this target. The assay can be described thus: depletion of SpyTag-GA (10 mg/g carrier) from E. coli lysate supernatant, SDS-PAGE densitometry; SpyCatcher on HFA001 epoxy carrier.
For assay [8] the target is unchanged. The experiment in a line: depletion of SpyTag-GA (10 mg/g carrier) from E. coli lysate supernatant, SDS-PAGE densitometry; SpyCatcher on ECR8204 epoxy carrier.
Assay [9] has the same target. The assay can be described thus: depletion of SpyTag-GA (10 mg/g carrier) from E. coli lysate supernatant, SDS-PAGE densitometry; SpyCatcher on ECR8285 epoxy carrier.
The target is the same in assay [10]. The experiment in a line: depletion of SpyTag-GA (10 mg/g carrier) from E. coli lysate supernatant, SDS-PAGE densitometry; SpyCatcher on LX-103B epoxy carrier.
Assay [11] has the same target. The experiment in a line: depletion of SpyTag-GA (10 mg/g carrier) from E. coli lysate supernatant, SDS-PAGE densitometry; SpyCatcher on LX-1000EP epoxy carrier.
The target is the same in assay [12]. The assay can be described thus: depletion of SpyTag-GA (2.0 mg/g carrier) from E. coli lysate supernatant, SDS-PAGE densitometry; SpyCatcher-LX-1000EP; pH 7.0, 25 C, 2 h.
Assay [13] has the same target. The experiment in a line: depletion of SpyTag-GA (10 mg/g carrier) from E. coli lysate supernatant, SDS-PAGE densitometry; SpyCatcher on LX-107S epoxy carrier (blocking control without SpyCatcher 72.5).

Consider “SpyTag-GS linker-GA-His fusion protein of a SpyTag and glutaryl-7-amidocephalosporanic acid acylase (from UniProt P07662 30-720) (enzyme)”, for which the Immobilization Efficiency (%) in assay [1] was found to be 94.7%; in assay [2] it was 92.2%; in assay [3], 90.9%; in [4], 86.6%; in assay [5], 96.9%; in assay [6] it was 91.5%. The Immobilization Efficiency (%) turned out to be 79.4% in [7]; 52.1% in assay [8]; 57.4% in [9]; 77% in assay [10]; 77.6% in assay [11]; 86.2% in assay [12]. The substance also yielded an Immobilization Efficiency (%) in assay [13] of 49.1%.

The record behind these values is patent US20240317895A1.
